2 substances from US20020137677A1 can be followed below.

Holding throughout (experiment): cell-based or functional assay
Assay [1] has as its target human zalpha11 receptor, full-length, on cells (human) (UniProt Q9HBE5).
Assay [2] concerns the target mouse zalpha11 receptor, on cells (mouse).
Assay [3] addresses human zalpha11 Ligand (human) (UniProt Q9HBE4).
Chain of UniProt Q9HBE4 (Q9HBE4 32-162 limits assumed, form in doubt): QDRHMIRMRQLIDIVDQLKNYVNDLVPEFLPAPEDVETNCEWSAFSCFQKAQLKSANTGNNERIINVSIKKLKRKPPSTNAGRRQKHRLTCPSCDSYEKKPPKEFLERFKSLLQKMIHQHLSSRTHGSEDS

Chain of UniProt Q9HBE5 (Q9HBE5 20-538 limits assumed): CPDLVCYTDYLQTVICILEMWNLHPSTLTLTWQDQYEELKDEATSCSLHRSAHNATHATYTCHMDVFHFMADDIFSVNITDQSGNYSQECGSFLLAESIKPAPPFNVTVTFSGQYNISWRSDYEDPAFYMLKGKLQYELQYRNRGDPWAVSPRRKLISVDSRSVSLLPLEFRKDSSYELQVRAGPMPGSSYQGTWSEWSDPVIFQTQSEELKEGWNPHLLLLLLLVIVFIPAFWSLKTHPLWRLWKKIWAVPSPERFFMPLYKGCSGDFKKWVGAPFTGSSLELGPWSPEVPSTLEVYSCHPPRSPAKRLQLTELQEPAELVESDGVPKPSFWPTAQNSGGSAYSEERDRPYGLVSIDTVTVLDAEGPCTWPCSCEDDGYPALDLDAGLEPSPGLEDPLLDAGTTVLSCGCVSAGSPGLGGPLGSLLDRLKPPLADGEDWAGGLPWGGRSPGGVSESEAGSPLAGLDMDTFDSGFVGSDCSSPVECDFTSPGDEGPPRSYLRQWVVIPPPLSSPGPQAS

In assay [1], mouse zalpha11 Ligand registered an STAT luciferase reporter response of BaF3/KZ134/Zalpha11 cells (fold over media-only control) of 40 and a proliferation of BaF3/Zalpha11 cells (Alamar Blue) (fold over background) of 5. In addition, in assay [2], the STAT luciferase reporter response of untransfected BaF3/KZ134 control cells was found to be 5 fold.
With “soluble human zalpha11 receptor/human IL-2Rγ receptor heterodimer (hzalpha11/IgGγ1 + hIL-2Rγ/human κ light chain) (Fc fusion)”, in assay [3], the inhibition of BaF3/zalpha11 proliferation (Alamar Blue), concentration completely inhibiting 3 ng/ml human zalpha11 Ligand is 0.312 µg/mL and the potency in inhibiting human zalpha11 Ligand relative to the homodimeric soluble zalpha11 receptor (zalpha11-Fc4) lay in the range of 30 to 100 fold.
